{"source": "patent US11608374", "about": "(dated 2023)", "binders": {"B1": {"name": "mabB_pH1 (antibody, V domains shown)", "VH": "QVQLVQSGAEVKKPGASVKVSCKVSGFPIKHHFQHWVRQAPGKGLEWMGWSDPEIGDTEYASKFQGRVTMTEDTSTDTAYMELSSLRSEDTAVYYCATGDTTYKFDFWGQGTTVTVSS", "VL": "DIQMTQSPSSLSASVGDRVTITCKASQDVHTAVAWYQQKPGKAPKLLIYWASTRWTGVPSRFSGSGSGTDFTLTISSLQPEDFATYYCQQYHDYPWTFGGGTKVEIK"}, "B2": {"name": "bsH638/abL152 (antibody, V domains shown)", "VH": "QVQLVQSGAEVKKPGASVKVSCKVSGYTLTHTFMHWVRQAPGKGLEWMGWSDPEIGDHEYASKFQGRVTMTEDTSTDTAYMELSSLRSEDTAVYYCATGDTTYKFDYWGQGTLVTVSS", "VL": "DIQMTQSPSSLSASVGDRVTITCRASEGIHDALAWYQQKPGKAPKLLIYWASTLESGVPSRFSGSGSGTDFTLTISSLQPEDFATYYCQQGDTLPYTFGGGTKVEIK"}, "B3": {"name": "mabB//mabA_pH1 (antibody)", "chain 1": "QVQLVQSGAEVKKPGASVKVSCKVSGFPIKDTFQHWVRQAPGKGLEWMGWSDPEIGDTEYASKFQGRVTMTEDTSTDTAYMELSSLRSEDTAVYYCATGDTTYKFDFWGQGTTVTVSS", "chain 2": "DIQMTQSPSSLSASVGDRVTITCKASQDVHTAVAWYQQKPGKAPKLLIYWASTRWTGVPSRFSGSGSGTDFTLTISSLQPEDFATYYCQQYSDYPWTFGGGTKVEIK", "chain 3": "EVQLVQSGAEVKKPGASVKVSCKASGYTFTDYNMHWVRQAPGQGLEWMGEINPNSGHAGYNQKFKGRVTMTTDTSTSTAYMELRSLRSDDTAVYYCARLHYDDIYDDWYFDVWGQGTTVTVSS", "chain 4": "DIQMTQSPSSLSASVGDRVTITCRASHDISNYLNWYQQKPGKAPKLLIYYTSRLLSGVPSRFSGSGSGTDFTLTISSLQPEDFATYYCQQGDTLPYTFGGGTKVEIK"}, "B4": {"name": "mabB//mabA_pH2 (antibody)", "chain 1": "QVQLVQSGAEVKKPGASVKVSCKVSGFPIKDTFQHWVRQAPGKGLEWMGWSDPEIGDTEYASKFQGRVTMTEDTSTDTAYMELSSLRSEDTAVYYCATGDTTYKFDFWGQGTTVTVSS", "chain 2": "DIQMTQSPSSLSASVGDRVTITCKASQDVHTAVAWYQQKPGKAPKLLIYWASTRWTGVPSRFSGSGSGTDFTLTISSLQPEDFATYYCQQYSDYPWTFGGGTKVEIK", "chain 3": "EVQLVQSGAEVKKPGASVKVSCKASGYTFTDYNMHWVRQAPGQGLEWMGEINPNSGHAGYNQKFKGRVTMTTDTSTSTAYMELRSLRSDDTAVYYCARLHYDHIYDDWYFDVWGQGTTVTVSS", "chain 4": "DIQMTQSPSSLSASVGDRVTITCRASHDISNYLNWYQQKPGKAPKLLIYYTSRLLSGVPSRFSGSGSGTDFTLTISSLQPEDFATYYCQQGDTLPYTFGGGTKVEIK"}, "B5": {"name": "mabB//mabA_pH3 (antibody)", "chain 1": "QVQLVQSGAEVKKPGASVKVSCKVSGFPIKDTFQHWVRQAPGKGLEWMGWSDPEIGDTEYASKFQGRVTMTEDTSTDTAYMELSSLRSEDTAVYYCATGDTTYKFDFWGQGTTVTVSS", "chain 2": "DIQMTQSPSSLSASVGDRVTITCKASQDVHTAVAWYQQKPGKAPKLLIYWASTRWTGVPSRFSGSGSGTDFTLTISSLQPEDFATYYCQQYSDYPWTFGGGTKVEIK", "chain 3": "EVQLVQSGAEVKKPGASVKVSCKASGYTFTDYNMHWVRQAPGQGLEWMGEINPHSGHAGYNQKFKGRVTMTTDTSTSTAYMELRSLRSDDTAVYYCARLHYDDIHDDWYFDVWGQGTTVTVSS", "chain 4": "DIQMTQSPSSLSASVGDRVTITCRASHDISNYLNWYQQKPGKAPKLLIYYTSRLLSGVPSRFSGSGSGTDFTLTISSLQPEDFATYYCQQGDTLPYTFGGGTKVEIK"}, "B6": {"name": "mabB (antibody, V domains shown)", "VH": "QVQLVQSGAEVKKPGASVKVSCKVSGFPIKDTFQHWVRQAPGKGLEWMGWSDPEIGDTEYASKFQGRVTMTEDTSTDTAYMELSSLRSEDTAVYYCATGDTTYKFDFWGQGTTVTVSS", "VL": "DIQMTQSPSSLSASVGDRVTITCKASQDVHTAVAWYQQKPGKAPKLLIYWASTRWTGVPSRFSGSGSGTDFTLTISSLQPEDFATYYCQQYSDYPWTFGGGTKVEIK"}, "B7": {"name": "mabB_pH5 (antibody, V domains shown)", "VH": "QVQLVQSGAEVKKPGASVKVSCKVSGFPIKHHFQHWVRQAPGKGLEWMGWSDPEIGDTEYASKFQGRVTMTEDTSTDTAYMELSSLRSEDTAVYYCATGHTTYKFDFWGQGTTVTVSS", "VL": "DIQMTQSPSSLSASVGDRVTITCKASQDVHTAVAWYQQKPGKAPKLLIYWASTRWTGVPSRFSGSGSGTDFTLTISSLQPEDFATYYCQQYSDYHWTFGGGTKVEIK"}, "B8": {"name": "bsH656/abL152 (antibody, V domains shown)", "VH": "QVQLVQSGAEVKKPGASVKVSCKVSGYTLTHTFMHWVRQAPGKGLEWMGWSDPEIGDTEYASKFQGRVTMTEDTSTDTAYMELSSLRSEDTAVYYCATGDTTYKFDYWGQGTLVTVSS", "VL": "DIQMTQSPSSLSASVGDRVTITCRASEGIHDALAWYQQKPGKAPKLLIYWASTLESGVPSRFSGSGSGTDFTLTISSLQPEDFATYYCQQGDTLPYTFGGGTKVEIK"}, "B9": {"name": "mabB_pH4 (antibody, V domains shown)", "VH": "QVQLVQSGAEVKKPGASVKVSCKVSGFPIKHHFQHWVRQAPGKGLEWMGWSDPEIGDTEYASKFQGRVTMTEDTSTDTAYMELSSLRSEDTAVYYCATGDTTYKFDFWGQGTTVTVSS", "VL": "DIQMTQSPSSLSASVGDRVTITCKASQDVHTAVAWYQQKPGKAPKLLIYWASTRWTGVPSRFSGSGSGTDFTLTISSLQPEDFATYYCQQYSDYHWTFGGGTKVEIK"}, "B10": {"name": "mabA_NpH3 (antibody, V domains shown)", "VH": "EVQLVQSGAEVKKPGASVKVSCKASGYTFTDYNMHWVRQAPGQGLEWMGEINPNSGGAGYNQKFKGRVTMTTDTSTSTAYMELRSLRSDDTAVYYCARLGYDDIYDDWYFDVWGQGTTVTVSS", "VL": "DIQMTQSPSSLSASVGDRVTITCRASQDISNYLNWYQQKPGKAPKLLIYYHSRLLSGVPSRFSGSGSGTDFTLTISSLQPEDFATYYCHQGDTLPYTFGGGTKVEIK"}, "B11": {"name": "amH848/abL152 (antibody, V domains shown)", "VH": "EVQLVQSGAEVKKPGASVKVSCKASGYTFTSYNMHWVRQAPGKGLEWMGEIMPHSGRYGLKQKFKGRVTMTRDTSISTAYMELSRLRSDDTAVYYCARLEYSEIYDDWYFDVWGQGTTVTVSS", "VL": "DIQMTQSPSSLSASVGDRVTITCRASEGIHDALAWYQQKPGKAPKLLIYWASTLESGVPSRFSGSGSGTDFTLTISSLQPEDFATYYCQQGDTLPYTFGGGTKVEIK"}, "B12": {"name": "mabA_pH4 (antibody, V domains shown)", "VH": "EVQLVQSGAEVKKPGASVKVSCKASGYTFTDYNMHWVRQAPGQGLEWMGEINPHSGHAGYNQKFKGRVTMTTDTSTSTAYMELRSLRSDDTAVYYCARLHYDDIHDDWYFDVWGQGTTVTVSS", "VL": "DIQMTQSPSSLSASVGDRVTITCRASHDIHNYLNWYQQKPGKAPKLLIYYTSRLLSGVPSRFSGSGSGTDFTLTISSLQPEDFATYYCQQGDTLPYTFGGGTKVEIK"}}, "key": {"mouse sclerostin [1]": {"molecular_target": "T1, mouse sclerostin (mouse)", "T1 chain": "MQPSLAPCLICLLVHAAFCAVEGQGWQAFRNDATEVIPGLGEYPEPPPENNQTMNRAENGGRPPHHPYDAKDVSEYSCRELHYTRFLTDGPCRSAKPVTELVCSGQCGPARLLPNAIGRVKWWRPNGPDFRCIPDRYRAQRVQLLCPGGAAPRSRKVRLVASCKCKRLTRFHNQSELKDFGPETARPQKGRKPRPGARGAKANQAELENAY", "assay": "SPR, pH 7.4 to 5.8, 37C"}, "mouse sclerostin [2]": {"molecular_target": "T1, mouse sclerostin", "assay": "SPR, pH 7.4, 37C"}, "human sclerostin": {"molecular_target": "T2, human sclerostin (human)", "T2 chain": "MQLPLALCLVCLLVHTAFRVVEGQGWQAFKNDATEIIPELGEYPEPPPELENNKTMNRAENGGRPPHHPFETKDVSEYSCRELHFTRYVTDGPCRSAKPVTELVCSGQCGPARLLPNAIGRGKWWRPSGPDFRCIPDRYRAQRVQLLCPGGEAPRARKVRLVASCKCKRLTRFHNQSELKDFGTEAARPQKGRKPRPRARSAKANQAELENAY", "assay": "SPR, pH 7.4"}, "cynomolgus sclerostin": {"molecular_target": "T3, cynomolgus sclerostin (cynomolgus monkey)", "T3 chain": "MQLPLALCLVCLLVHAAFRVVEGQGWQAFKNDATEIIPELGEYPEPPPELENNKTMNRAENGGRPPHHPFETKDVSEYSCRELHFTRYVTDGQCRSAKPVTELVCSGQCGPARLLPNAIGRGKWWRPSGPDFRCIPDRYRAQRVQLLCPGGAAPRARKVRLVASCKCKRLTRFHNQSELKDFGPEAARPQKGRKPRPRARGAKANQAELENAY", "assay": "SPR, pH 7.4"}, "mouse sclerostin [3]": {"molecular_target": "T1, mouse sclerostin", "assay": "SPR, pH 5.8, 37C"}, "rat sclerostin [4]": {"molecular_target": "T4, rat sclerostin (rat)", "T4 chain": "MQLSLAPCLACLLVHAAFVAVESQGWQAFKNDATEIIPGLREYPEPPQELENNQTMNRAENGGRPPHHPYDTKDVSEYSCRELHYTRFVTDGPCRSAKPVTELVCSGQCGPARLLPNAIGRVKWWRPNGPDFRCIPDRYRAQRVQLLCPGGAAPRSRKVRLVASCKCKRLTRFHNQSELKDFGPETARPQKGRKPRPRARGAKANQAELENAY", "assay": "SPR, pH 7.4, 37C"}, "rat sclerostin [5]": {"molecular_target": "T4, rat sclerostin", "assay": "SPR, pH 5.8, 37C"}}}
{"binder": "B1", "values": [{"measurement": "koff", "setting": "mouse sclerostin [1]", "result": 0.0206, "unit": "s⁻¹"}, {"measurement": "Kd", "setting": "mouse sclerostin [2]", "result": 0.138, "unit": "nM"}]}
{"binder": "B2", "values": [{"measurement": "koff", "setting": "human sclerostin", "result": 0.0093, "unit": "s⁻¹"}, {"measurement": "koff", "setting": "cynomolgus sclerostin", "result": 0.0107, "unit": "s⁻¹"}]}
{"binder": "B3", "values": [{"measurement": "koff", "setting": "mouse sclerostin [1]", "result": 0.0347, "unit": "s⁻¹"}]}
{"binder": "B4", "values": [{"measurement": "koff", "setting": "mouse sclerostin [1]", "result": 0.0186, "unit": "s⁻¹"}]}
{"binder": "B5", "values": [{"measurement": "koff", "setting": "mouse sclerostin [1]", "result": 0.0516, "unit": "s⁻¹"}]}
{"binder": "B6", "values": [{"measurement": "Kd", "setting": "mouse sclerostin [3]", "result": 0.26, "unit": "nM"}, {"measurement": "Kd", "setting": "mouse sclerostin [2]", "result": 0.0141, "unit": "nM"}]}
{"binder": "B7", "values": [{"measurement": "Kd", "setting": "mouse sclerostin [2]", "result": 0.589, "unit": "nM"}]}
{"binder": "B8", "values": [{"measurement": "koff", "setting": "human sclerostin", "result": 0.0104, "unit": "s⁻¹"}, {"measurement": "koff", "setting": "cynomolgus sclerostin", "result": 0.0108, "unit": "s⁻¹"}]}
{"binder": "B9", "values": [{"measurement": "Kd", "setting": "mouse sclerostin [2]", "result": 0.782, "unit": "nM"}]}
{"binder": "B10", "values": [{"measurement": "Kd", "setting": "rat sclerostin [4]", "result": 0.0426, "unit": "nM"}, {"measurement": "Kd", "setting": "rat sclerostin [5]", "result": 0.0454, "unit": "nM"}]}
{"binder": "B11", "values": [{"measurement": "koff", "setting": "human sclerostin", "result": 0.00946, "unit": "s⁻¹"}, {"measurement": "koff", "setting": "cynomolgus sclerostin", "result": 0.00854, "unit": "s⁻¹"}]}
{"binder": "B12", "values": [{"measurement": "koff", "setting": "mouse sclerostin [1]", "result": 0.0418, "unit": "s⁻¹"}, {"measurement": "Kd", "setting": "mouse sclerostin [2]", "result": 1.73, "unit": "nM"}]}
